In the supplement of paper PMC10567573:

B1: POMT2 (parent)
chain: VKYNSCADRPFSAPWWFWLSLTGV
B2: WDR88 (parent)
chain: LLTITKAHSNAISNCCFTFSGHFL
B3: RSPH3 (parent)
chain: FIPAKTGKDVATQILEGELFDFDL

Variants of: B1
Experiment: protein stability index of a GFP-peptide fusion (GPS, HEK-293T) (PSI 1-6); higher = more stable
Conditions: c terminus: a fixed tail appended
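Note: lentivirally expressed fusions sorted by FACS into six bins by GFP to DsRed ratio, PSI derived from sequencing read proportions per bin multiplied by bin number.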

Protein stability index of substitutions, site by site:
P10: M 1.94 | K 4.18 | E 1.63 | A 2.24 | L 2.5
S20: C 2.22 | M 3.17 | H 2.9 | I 2.08 | Y 2.25 | L 1.47 | F 1.04
A7: Y 1.39
N4: V 3.46 | T 3.25 | E 3.12
R9: L 2 | F 3.16 | A 2.8 | I 3.57 | G 3.51 | W 3.34 | N 3.39
W15: H 2.54 | K 3.58 | E 3.49
F11: G 2.84 | S 1
T22: K 2.12 | N 1.29 | I 1.56 | V 3.31 | A 1.62
L21: K 1.12 | P 2.68 | N 2.88 | A 3.62
W18: A 2.22 | S 3.44 | G 3.3 | Y 2.04 | T 3.52 | V 2.56 | C 2.54
Y3: P 2.55 | Q 1.41 | D 2.19 | K 2.11
P14: R 3.92 | Y 1.21 | G 2.4 | C 2.27 | A 2.21 | F 1.35 | V 2.71
S5: A 4.07 | D 4.19 | P 2.39
V1: L 1.66 | C 2.99 | R 1.98 | H 1.1 | A 3.3
F17: K 2.65 | T 3.3 | W 1.33 | V 2.16
S12: A 3.27 | F 2.65 | I 3.2
W16: L 1.8 | T 3.23 | Q 1.78 | D 3.79 | I 3.2 | V 2.01 | P 2.08
C6: T 1.92 | I 2.36 | L 2.11 | D 2.84 | N 1.02 | G 1.73 | W 1 | S 2.14
K2: T 1.61 | N 2.4 | Y 3.34 | R 2.2 | F 2.75
G23: S 1.47 | I 2.22 | A 1.77 | W 1.21 | N 1.69 | M 1.55 | Q 4.6 | E 5.35 | C 1.24 | F 2.65 | V 2.98 | T 2.04
L19: I 1.76 | F 2.95 | E 1.65 | T 1.64 | N 2.79
A13: E 2.18 | R 1 | H 1.18 | S 2.06 | G 2.11
V24: T 1.5 | L 5.16 | N 1.81 | A 2.85 | M 2.61 | R 1.87 | Y 2.1 | E 1 | I 2.98
D8: L 3 | T 3.21 | R 3.03 | I 3.67 | Y 2.29 | S 2.54 | W 1.26 | G 2.4 | P 3.01

Variants of: B2
Experiment: as above
Conditions: c terminus: a fixed tail appended

Protein stability index: each site, then its substitutions
L1: M 1.95 | P 2.81 | A 3.61 | G 1.49 | W 3.03 | V 2.93 | D 1.67 | I 4.01 | S 1.76 | T 3.09 | R 2.75 | F 2.52 | E 1.76 | N 2.47 | C 2.81 | Y 4.04 | Q 1.59 | H 2.46 | K 1.85
L2: C 2.18 | F 2.44 | D 1.4 | H 2.28 | A 3.15 | E 1.57 | G 2.01

Variants of: B3
Experiment: as above
Conditions: c terminus: a fixed tail appended

Protein stability index, by site and new letter:
D23: H 1.87 | V 1.59 | M 1.42 | E 1.89 | N 1.84 | F 1.34 | T 2.24 | C 2.08 | K 2.12 | P 2.08 | W 2.51 | A 2.12 | R 1.42 | I 1.24 | Q 1.99 | Y 2.24 | L 1.98 | S 2 | G 2.02
E16: K 2.11 | C 2.32 | G 2.34 | S 2.76 | R 2.46 | D 1.86 | V 2.04 | F 3.82 | P 1.8 | Y 2.01 | T 1.63 | N 2.34 | A 1.46 | M 3.38 | Q 1.7 | W 2.07 | L 1.73 | H 1.32 | I 2.24
F22: C 1.84 | Y 2.12 | W 1.91 | S 2.86 | K 2.74 | P 1.82 | T 2.67 | M 2.54 | H 2.56 | Q 2.84 | I 1.68 | D 3.7 | E 3.2 | N 2.87 | A 2.31 | G 2.81 | L 1.98 | R 2.42 | V 2.21
D21: P 2.47 | G 2.24 | H 1.79 | W 3.1 | S 2.54 | V 1.66 | A 2.33 | R 1.8 | M 2.98 | E 1.49 | Q 1.53 | I 2.72 | F 2.45 | L 3 | T 3.06 | N 1.53 | K 1.96 | C 2.71 | Y 2.78
L15: S 2.03 | T 1.66 | W 2.75 | Y 1.76 | R 2.75 | Q 1.96 | V 1.94
G17: M 1.71 | P 1.37 | K 1.93 | R 2.15 | S 1.56 | H 2.34 | F 2.72 | Y 2.06 | E 3 | I 2.31 | T 2.11 | D 1.75 | N 1.32 | A 2.14 | V 2.75 | W 1.95 | Q 2.26 | L 1.48 | C 2.54
L24: Q 2.7 | K 2.79 | R 2.31 | V 1.85 | M 2.23 | P 2.47 | E 2.78 | W 3.71 | T 2.39 | A 2.67 | G 2.75 | F 1.95 | D 3.04 | H 2.68 | I 2 | N 2.43 | S 2.36 | C 2.36 | Y 1.75
L19: R 1.6 | P 1.98 | T 2.28 | F 1.7 | I 2.05 | G 2.31 | A 2.2 | N 1.93 | C 1.83 | Q 1.66 | M 1.83 | D 2.59 | Y 2.02 | W 1.96 | S 1.98 | E 2.2 | K 2.21 | V 1.74 | H 2.01
E18: D 2.04 | F 3.44 | A 1.74 | C 2.17 | W 1.95 | Q 2.06 | L 2.42 | Y 1.59 | R 2.46 | T 2.62 | K 2.2 | M 2.73 | S 2 | H 2 | I 2.6 | G 1.71 | N 2.38 | V 2.46 | P 1.87
F20: H 1.59 | K 2.08 | T 2.13 | Q 2.44 | L 2.25 | E 2.6 | R 1.86 | M 1.88 | V 2.71 | P 2.37 | N 2.76 | D 2.92 | A 2.47 | I 1.72 | W 2.26 | C 2.16 | G 1.84 | Y 2.01 | S 2.52
